This data set in a line: soluble on expression in E. coli; label from the status in PepcDB or PDB records.
On to “MKEMVGGCCVCADENGWTDNPLIYCDGENCEVAVHQGCYGIQEVPEGEWFCAKCTKASAMMPGSINEATFCCQLCPFDYGALKKTDRNGWAHVICALYIPEVRFGNVHSMEPVILNDVPTDKFNKLCYICNEERPNDAKKGACMSCNKSTCKRSFHVTCAQRKGLLCEEGAISRNVKYCGYCENHLKKAINDPAIKVIPACPPVQRLSKEQDKKKTVLLTSLPLPPPAPRLHMLADPLPIKSNKVNNVLGLGSAINAVSLEERPASGSTVNSGIFVPPPTAFSPPLTTSSRSSVAQDPSPPLTINKNSLSSSGPLIPSTAHLSATTASATPIMANGSTLPPSSETTVGTHCLQQLQIQSAAAAAITQNQIGPSELNGYPAASQLSSFMHEIPARNTTSVASLLPPGAAEYHLNGSGDEEKTVKAVLTAPLTKAKRIRDSKNDMMDKTHKRPRANARPPAVLGSMSSGSSGGTVGKSPSMQRLQNLVAPIVSETVTDFQRDRVADRTAAERRAAAAQSQPSTSTNGGPNVTIPAVVEVHTNSTNSTNHQNNGLTQNAPASTSMQAGTSSNDGVISQNGTSSTSQSNRLNLPSFMEQLLERQWDQGSSLLMANAHFDVAQLLSCLFQLKSENFRLEENLSGLRKRRDHLFALNSRLAEVNTLDVSKRQRSDGLLLQQQIAHHLDPTSIVPKAEVHKQEPLSAPTSVPLPANHSSSLFEDIKAPKATYSRKTPSNIPLTVPLSTAATALTTTTAASSGAPVNSNIQNHRATPSTAGAPMAATPIMTAVTSANELAALSPERAQALLNMYRMPLDANVAAQLSMITNFPGQVNPSLFSRLLAVNMMNGGLQPNGQPLSALPPPTSATPNGK”, for which the “soluble on expression in E. coli” value is given as “soluble”. As for “MGSSHHHHHHSSGLVPRGSHMASMYTVGDYLLDRLHELGIEEIFGVPGDYNLQFLDQIISREDMKWIGNANELNASYMADGYARTKKAAAFLTTFGVGELSAINGLAGSYAENLPVVEIVGSPTSKVQNDGKFVHHTLADGDFKHFMKMHEPVTAARTLLTAENATYEIDRVLSQLLKERKPVYINLPVDVAAAKAEKPALSLEKESSTTNTTEQVILSKIEESLKNAQKPVVIAGHEVISFGLEKTVTQFVSETKLPITTLNFGKSAVDESLPSFLGIYNGKLSEISLKNFVESADFILMLGVKLTDSSTGAFTHHLDENKMISLNIDEGIIFNKVVEDFDFRAVVSSLSELKGIEYEGQYIDKQYEEFIPSSAPLSQDRLWQAVESLTQSNETIVAEQGTSFFGASTIFLKSNSRFIGQPLWGSIGYTFPAALGSQIADKESRHLLFIGDGSLQLTVQELGLSIREKLNPICFIINNDGYTVEREIHGPTQSYNDIPMWNYSKLPETFGATEDRVVSKIVRTENEFVSVMKEAQADVNRMYWIELVLEKEDAPKLLKKMGKLFAEQNK”, the entry is “soluble”; as for “MGSDKIHHHHHHMKMIIGRKIGMTRVFVGNDSVPVTVIKAGPCVVVQKKTVEKDGYNAVQLGFEKAKKVNKPLAGHFKKFGVEPMKILREFRVENPDEYEPGQVIKVDVFEKGEYVDVTGWTKGRGFAGAMKRWGFSGGPKSHGSKFHRELGSVGQHTEPAKIWKGKKMPGRYGNERVTVRNLQVVDIDPENDLLVVKGGVPGARGGLVLIRSAKAPKK”, “not soluble”; as for “CLTRISRPWLVTSCIWNKQLIRRAVVWLCGLTGKPILKLTNKDYTENGLGELLAKYGSAYEVNIKLFNDIQHTITGWPGGKPNADDSSRPERALPYPKRVVIFSPHPDDDVISMGGTFHKLVNQGHDVHVAYQTSGNIAVGDEEVIRYVSYLRNVCRQYGHESSPILAKAEEVRHYLMHKKIEGDPEQEDIRFMKGTIRREEARTACRYLGLPEDHVHFLDLPFYETGLIRKNPLGEEDVRIIMALLEEIQPHRIFVAGDLADPHGTHRICLNAVLAAIDELKEESWFKEDCRVWMYRGAWAEWEIDYIEMAVPMSPDELRFKRNSILKHQSQMESAPFLGDDERLFWQRAEDRNRQTATLYEKLGLASYEAIEAFVQYRPVE”, “not soluble”. Consider “ADPALADVCRTKLPSQAQDTLALIAKNGPYPYNRDGVVFENRESRLPKKGNGYYHEFTVVTPGSNDRGTRRVVTGGYGEQYWSPDHYATFQEIDPRC”, for which the “soluble on expression in E. coli” value was “soluble”. “GPGSMEGISEEQRQREEAEIRERDRKRQQEKEDYERRLAEAKAEEERKRREEEQLRLEEEKRKKRQEEEWKRLGSDAIQDLPPVPPPVAEEGALDMWYLDDETSQPPLSTASLKPGRKVGAPVITMKALRELGVVLFRVSMSDFSVVRQIIKEREYKHTDEVKISQTAKDDSFLERWYQEHYTEDEQFRVVMDGSFFLDIRSKQDEWIRVHVKAGDLVVLPAGIYHRATLDEDDYVALYRGFQDAPRFVPVKRSDSRADSNRVRLAYLMSLKKGDVATQNGFL”: the “soluble on expression in E. coli” value was “soluble”.

Regarding “MQKSIDDMINEVLAVKVEKLPKTQDFSDLQEVCASKLQIINKEMDEADRKLEETLEKRKLVEKQLEDLQEQYKVKEFAFSLQKEFQDELKKVAEEIF”, the “soluble on expression in E. coli” value is “not soluble”. The same measure for “MLNILDIITDWIKEILRDCIMGNLDGMFDQINNEVGEVAANVGTTPAAWNAGVFSMIRNLSDT”: “not soluble”; for “MGSDKIHHHHHHMKFSIDRDALLKPLQLVSGAVERRHNLPILANLLVEVSGHSLKMTGTDLEVELVGEATVHGDVQEGRTTVPAKKLLDIVKSLPEQTEIKVEQQENKWLLRCGRSRFSLATLPAEEYPNVEAFRPDIEFTLKQGTLKSLIDSTQFSMANQDVRYYLNGLLIETEGNVLRAVATDGHRLALSHRMIEASLPEKQVIVPRKGVVELSRLLDAEDQDITLAIGESAIRATTATAVFTSKLVDGRFPDYRRVLPKGGDKIVIASRNQLKQALLRASILSNEKFRGVRILLEDGLLKITANNPEQEEAEEIIDVDYNSTTLEIGFNVSYLLDVLNSLRSDEVRVTLIDSNSSALIENHVEEDSMYVVMPMRL”: “not soluble”. As to “MGSDKIHHHHHHMSSPSLGTEQVFPQQALLDPVLLRAFVAVADSGSFTRAAAATHLTQSTVSQQLKRLEQQLGCELLSRKGRYAMPTADGERLLGYARQILALMAEAGMTPAQPPLLRLAVAEDFAGTALMPILKKLITRFPSVKLEVQSGLSKPLYQAFQEGVVELALIKQRQGEHPAKACWPEALSWLAAADWQAVKAGEPVPLIAFPAGGLYRNEMAQLLDEAGIPWRLVYSSNSLEGVLCAVAAGMGVSLLPSRFIRAREHREITALPRATAMELALHLASSPGAELQWLADEIGAYCDRLSSGGSSVSCPNTSA”, the “soluble on expression in E. coli” value is reported as “not soluble”.

Consider “MINKDEEVANRFSDPSKKLVEYVTDFSDMRDEDIELTKPIYENYGNFQLLNETGIIRTDEEIKELYNCKGEFGSTDEVTDMSF”, for which the “soluble on expression in E. coli” value is “not soluble”. As for “MGSDKIHHHHHHMKAVVQQWYTHPAVRAALTDLADYRPTLATAIEIQQVPAPTFAERPRSLLVSQRMQALGLHDVEVDDLGNVYGRRPGSTARPGLLISAHLDTVFPADTDLSIRYEGERVYGPGIGDNSAGVAGLLRLAEMYQRFDLPNTSDIWFVANVGEEGLGDLRGMRRVVERLRTRLSTVVVIEGCDFGSLHHQAIGVRRFRIEATGPGGHSWGNFGTPSAIHVLVRLAARLTELQVPSSPRTTFNIGTISGGTSVNTIAQHANMLLDLRSVSSAALTDLVNEVYRLVEEVALEYPDVHIQLTKVGDRPSGAIPREHPLVQAAVAAYQMVGAQISFQQSSTDANIPLSLGMPAVCVGLTDGGNAHRTDEYILPFNLSRGMQALLLLSLAANTLETI”, the entry is “not soluble”.

For “MSVVIERIPKEAIPKSLLLLADPSERQIATYVQRGLTYVAKQGGSVIGVYVLLETRPKTMEIMNIAVAEHLQGKGIGKKLLRHAVETAKGYGMSKLEVGTGNSSVSQLALYQKCGFRIFSIDFDYFSKHYEEEIIENGIVCRDMIRLAMELNKNV”, the “soluble on expression in E. coli” value is “soluble”. As for “MGSDKIHHHHHHMAVPLPVSARKDTVVPVLMYHDVSNHFHDPFTISPALFAAHMEWLHAAGYRAVTVGEALAGRGATAGKMVVITFDDGYASFLDYVHPLLLQYGFSAAISVIGSHVGTWLERDGRRPMLSWDEYRYLAARRVEVGCHAYHLHAIERLRHASADELAEDLELFQKTMAREMGRRATLLAWPYGIYTSERVQIARQAGFVHILTSNEGYVDDGTDPGAIPRLNIDNRLDLVSFSNYLRGE”, the entry is “not soluble”. The same measure for “MNTRTIYLAGGSFWGLEAYFQRIDGVVDAVSGYANGNTKNPSYEDVSYRHTGHAETVKVTYDADKLSLDDILQYFFRVVDPTSLNKQGNDTGTQYRSGVYYTDPAEKAVIAAALKREQQKYQLPLVVENEPLKNFYDAEEYHQDYLIKNPNGYCHIDIRKADEPLPGKTKTAPQGKGFDAATYKKPSDAELKRT”: “soluble”; for “MSKEIDISIRYLENVLSTNNSTLILSSTAAVLEAVSKNCDTTNGELKRSIISLLRIIDKKCFLNQDVDVNQIKFSLQEVGKLSTKYPKSHQKPGNEVKVKTNAEFREIETVPNPDEENIDNLLNQLNLKKVPSFSPAFPDIGDDSDDENGITTKQKEEERAEQHGQKVCEEEVVKLPDGREIRMKKTKTVNVKQTTKHVTISTKSANMPEVSRTFMNARRGFDEDEEEENTNFGSSNMRGGDPFERFRSMLKDKDEKIEAIEGESSSDPGTPGSSSKSKTIERTSEVSQKVSEKKEKDGRLLAEHEASKLDKSNLFAKQVDTYQGAALIDRKGEGSYEESTLVRSALPQDSQVATPPRMHVVEYMMMFGDDKKNNENEYLKGTTISSYVRLNNNLTTHEEQFKKKIQFEFSTAGTSSTTIDLDNLSDLLNQTDFNCLRPPNKFLEDTPLIVEQPKAIDWQREPTSAPPEKDLLLEHDGVDYVIFREKEGKVLEVRGGPKDALIVYATQSTHSSLLYQEAFLITFRTFISSLELVNKLIKRYLYMSLADDSQSESIARHTFSVIVRIIDETTQYELDFDLITSVTSFVYRLIHDGNFTYSRILRTRLLDRIKDSFDIQTVLGTNLCKPRKPHDLFDFKSAEIACQLTFIDSQLYHRIESAELLWWAQEQNEKKSKNLVNFTEQFNNLSFWVRTLIITQGTQKERERHMMKFVKIMKHLREMCNFNSYLAILSAIMSTPLARLEWSKNIKDALKEHTAVMDTAQSYKNYRALLQTAKPPCVPYIGIILQDLTFVHAGNPDTIPSDRCHGAKNMINFLKRWNQFAILDSIRKLKKWNYDIKKNDIVVQYFNGFKDCIDEERTWQLSHQIKPSNRKSKTQA”: “not soluble”; for “MSSISSSSSNVRMDRRFDWVGPPDNLSKIRKIMLRRVDNESELERQYRLAREELNQWNSDFWAEHNQLFDRQKSDFVERKQQELGRLEHVSANELSEFYRDFLNDRHVAMMAYNKEWYRRNLQLIWPALKVNVVRFFRMARR”: “not soluble”. The same measure for “MANGTVLHFRFNVKQIRAKIVRKSYRFFPNDTAGHIRNMHDTMNKIFENSPPAFSYKPIETLNKCIAKVKSDVCHSTGGICKAAMDNVTNWVYNTTEGLFTTGTRLIV”: “not soluble”; for “MILIRLEPGMDLMEEMRAAFSEGVVVTGIGSLHRVRIRTADESELTVEGPLEILSLQGTISPDGVHIHIAVADSEGRVTGGHLRGDSPVRTTAEIAVIPYQGVLRRVMDRRTGYRELLVLE”: “not soluble”; for “MPHNSVKHSTRLDVIPLKTAEKHPNSQRRFHVMSKPGGSKCNLDCQYCFYLHKDELLHQPKQPMMDDTTLEAFIKSYIESQDGHEIVFSWQGGEPTLLGLDYFKKIVQLQNKYRPSGVKIENDLQTNGILLNDEWCQFLKDNGFLVGLSIDGPKELHDKYRVTRSGKPTFNLVMAAAKRLQEHHVPFNSLVVVNRHNAKHPLDVYRFLTKELGATYIQFTPCVEAKDFTTTAPQFWNETMIPNKGSELAKPGHPMSIVTDWSVDPDDWGNFLNTVFVEWVNNDLGRVLVNLFETAVAQVMGKESQLCVTAEFCGKGLAMEHNGDVFSCDHYVYPEYKLGNIHDRGLNEFAFSIRQHGFGMAKRDSLPSYCKSCPHLKLCWGECPKNRLINTPNGEPGLNYLCSGIRAFFDESLPMLTGLSVLLQRQENTQK”: “not soluble”.

Values taken from the DeepSol protein solubility set.
